Data taken from patent US7893197B2, “Relaxin-3 chimeric polypeptides and their preparation and use” (Janssen Pharmaceutica N.V., priority 2005, dated 2011).
Ends that are not written are not given here.

T1: GPCR135 (Homo sapiens, UniProt Q9NSD7)
T1 construct: expressed in transfected cells
T1 sequence (Q9NSD7 1-469): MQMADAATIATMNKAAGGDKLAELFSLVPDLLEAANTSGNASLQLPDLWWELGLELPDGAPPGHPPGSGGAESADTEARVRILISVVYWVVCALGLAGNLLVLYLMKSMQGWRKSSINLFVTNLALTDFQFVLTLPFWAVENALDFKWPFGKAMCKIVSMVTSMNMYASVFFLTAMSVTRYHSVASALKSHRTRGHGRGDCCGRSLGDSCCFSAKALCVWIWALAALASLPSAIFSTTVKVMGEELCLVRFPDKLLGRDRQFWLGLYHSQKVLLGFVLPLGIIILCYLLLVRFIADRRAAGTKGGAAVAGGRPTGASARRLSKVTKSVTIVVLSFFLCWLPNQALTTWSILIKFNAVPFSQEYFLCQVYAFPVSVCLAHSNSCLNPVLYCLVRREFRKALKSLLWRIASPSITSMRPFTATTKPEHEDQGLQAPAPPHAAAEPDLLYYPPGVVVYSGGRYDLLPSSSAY

T2: LGR7 (Homo sapiens, UniProt Q9HBX9)
T2 construct: Human LGR7 cDNA containing the complete coding region was PCR amplified; expressed in transfected cells
T2 sequence (Q9HBX9 1-757): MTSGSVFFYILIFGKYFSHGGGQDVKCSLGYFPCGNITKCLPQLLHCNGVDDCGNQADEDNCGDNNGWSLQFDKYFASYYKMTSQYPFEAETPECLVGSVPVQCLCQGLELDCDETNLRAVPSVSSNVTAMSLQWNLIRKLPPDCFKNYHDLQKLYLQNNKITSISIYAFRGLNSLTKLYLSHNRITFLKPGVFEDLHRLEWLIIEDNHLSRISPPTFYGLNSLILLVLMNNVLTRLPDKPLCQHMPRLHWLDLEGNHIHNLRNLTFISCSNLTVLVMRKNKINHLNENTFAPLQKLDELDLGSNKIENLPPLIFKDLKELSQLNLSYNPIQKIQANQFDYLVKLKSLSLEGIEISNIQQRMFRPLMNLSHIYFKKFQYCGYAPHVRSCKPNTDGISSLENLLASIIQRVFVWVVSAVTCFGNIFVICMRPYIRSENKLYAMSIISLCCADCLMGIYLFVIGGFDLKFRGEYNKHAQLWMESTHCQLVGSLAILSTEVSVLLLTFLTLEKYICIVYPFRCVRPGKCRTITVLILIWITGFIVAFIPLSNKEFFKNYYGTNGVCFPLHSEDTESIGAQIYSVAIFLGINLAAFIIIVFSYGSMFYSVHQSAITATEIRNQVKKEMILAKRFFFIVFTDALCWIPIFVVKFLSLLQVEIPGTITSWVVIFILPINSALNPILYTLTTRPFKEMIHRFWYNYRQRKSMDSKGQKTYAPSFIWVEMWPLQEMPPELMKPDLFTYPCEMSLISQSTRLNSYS

B1: porcine relaxin: porcine relaxin, reference ligand for LGR7 and LGR8 (protein)
chain: QSTNDFIKACGRELVRLWVEICGSVSWGRTALSLEEPQLETGPPAETMPSSITKDAEILKMMLEFVPNLPQELKATLSERQPSLRELQQSASKDSNLNFEEFKKIILNRQNEAEDKSLLELKNLGLDKHSRKKRLFRMTLSEKCCQVGCIRKDIARLC

What was measured:
GPCR135 [1] = biological target: T1, GPCR135; test: Inhibition of forskolin stimulated β-galactosidase expression in SK-N-MC/β-gal cells; type: cell-based; conditions: for EC50 to activate GPCR135: inhibition of 5 μM forskolin stimulated β-galactosidase expression, mean ± SEM, n = 3
Description: (§8) Different chimeric polypeptides at various concentrations were added to SK-N-MC/β-gal cells expressing human GPCR135 (FIG. 4A) or GPCR142 (FIG. 4B) to inhibit forskolin stimulated β-galactosidase expression. […] In parallel, chimeric polypeptides at various concentrations were added to SK-N-MC/β-gal cells expressing human LGR7 (FIG. 4C) and LGR8 (FIG. 4D) to stimulate β-galactosidase expression. Relaxin-3 and INSL3 were used as positive controls for LGR7 and LGR8, respectively. Intracellular β-galactosidase activity was measured by a colorimetric assay using CRGP as the substrate and reading the absorbance at wavelength of 570 nm. Data represent mean±SEM (n=3).

LGR8 = biological target: T3, LGR8 (Homo sapiens, UniProt Q8WXD0); test: Stimulation of β-galactosidase expression in SK-N-MC/β-gal cells; type: cell-based
T3 construct: Human LGR8 cDNA containing the complete coding region was PCR amplified; expressed in transfected cells
Description: (§1) FIGS. 1A-1D show the activation of GPCR135 and GPCR142 by relaxin-3 B-chain, but not of LGR7 or LGR8. In FIG. 1A, SK-N-MC/β-gal cells expressing human GPCR135 were stimulated with relaxin-3, relaxin-3 B-chain, porcine relaxin, or INSL3 at various concentrations to inhibit the forskolin stimulated β-galactosidase expression. Forskolin was added to cells at a final concentration of 5 μM to stimulate the β-galactosidase expression. FIG. 1B depicts results for SK-N-MC/β-gal cells expressing human GPCR142 stimulated as in FIG. 1A. In FIG. 1C, SK-N-MC/β-gal cells expressing human LGR7 were stimulated with relaxin-3, relaxin-3 B-chain, porcine relaxin, and INSL3 at various concentrations to induce the β-galactosidase expression. The intracellular β-galactosidase activities were measured by a colorimetric assay using CRGP as the substrate and reading the absorbance at a wavelength of 570 nm. For FIG. 1D, SK-N-MC/β-gal cells expressing human LGR8 were stimulated as in FIG. 1C.
(§2) FIGS. 4A-4D illustrate the evaluation of the agonist activity of relaxin-3 chimeric polypeptides in biofunctional assays. Different chimeric polypeptides at various concentrations were added to SK-N-MC/β-gal cells expressing human GPCR135 (FIG. 4A) or GPCR142 (FIG. 4B) to inhibit forskolin stimulated β-galactosidase expression. Human relaxin-3 was used as the positive control. In parallel, chimeric polypeptides at various concentrations were added to SK-N-MC/β-gal cells expressing human LGR7 (FIG. 4C) and LGR8 (FIG. 4D) to stimulate β-galactosidase expression. Relaxin-3 and INSL3 were used as positive controls for LGR7 and LGR8, respectively. Intracellular β-galactosidase activity was measured by a colorimetric assay using CRGP as the substrate and reading the absorbance at wavelength of 570 nm. Data represent mean±SEM (n=3).
(§3) It has been shown that synthetic human relaxin-3 B-chain alone, but not A-chain, is an agonist for both GPCR135 and GPCR142 (Liu et al., 2003, Journal of Biological Chemistry, 278:50754-50764 and Liu et al., 2003, Journal of Biological Chemistry, 278:50765-50770). Those studies were repeated herein in SK-N-MC/β-gal cells, which harbor a β-galactosidase gene under the control of a cAMP responsive element (CRE) (Liu et al., 2001, Molecular Pharmacology, 59:420-426). In such SK-N-MC/β-gal cells, an increase in intracellular cAMP concentration leads to increased β-galactosidase gene expression, the activity of which is measured using Chlorophenol Red-β-D-Galactopyranoside (CPRG) as the substrate.
(§4) The inventive chimeric polypeptides were each independently tested for their ability to activate either GPCR135, GPCR142, LGR7, or LGR8, respectively, in separate pools of SK-N-MC/β-gal cells (see supra), each pool stably expressing one of the respective receptors, as indicated (FIG. 4).
(§5) Cells were seeded in 96-well tissue culture plate at a density of 30,000 cells/well in MEM plus 10% fetal serum, sodium pyruvate, penicillin, streptomycin, and G418 (400 mg/L). For cells expressing GPCR135 or GPCR142, forskolin was added to cells at a final concentration of 5 μM to stimulate intracellular cAMP accumulation. Different concentrations of each of the inventive polypeptides were then added to the cells to inhibit the forskolin induced cAMP accumulation. For cells expressing LGR7 or LGR8, intracellular cAMP was stimulated with each of the inventive chimeric polypeptides at various concentrations.
(§6) For all cells, after adding the chimeric polypeptides, cells were incubated for 6 additional hours in 37° C. incubator. The media was then aspirated and the β-galactosidase activities measured as previously described (Liu et al., 2001, Molecular Pharmacology, 59:420-426). The results were analyzed by Prism 3.0 software. […]

LGR7 [2] = biological target: T2, LGR7; test: Radioligand competition binding, [125I]-relaxin-3, live transfected COS-7 cells; conditions: [125I]-relaxin-3 100 pM; mean ± SEM, n = 3
Description: For GPCR135, GPCR142, and LGR7, [^125I]-relaxin-3 was used as the radioligand at a final concentration of 100 pM. Different unlabeled peptides were used in the binding assay as the competitors. […] Different unlabeled peptides including relaxin-3 chimeras at various concentrations were added to the binding assay as the competitors. Data represent mean±SEM (n=3).
Radioligand binding assays for LGR7 and LGR8 were performed using live COS-7 cells transiently transfected with LGR7 or LGR8 expression plasmids in 15-cm culture dishes using LipofectAmine (Invitrogen). Two days after transfection, the transfected cells were detached from the 15-cm culture dished using phosphate buffered saline (PBS) plus 10 mM EDTA, seeded into 96-well opaque poly-D-lysine coated culture plates and used for radioligand binding assays. For LGR7, [^125I]-relaxin-3 was used as the tracer. […] [^125I]-labeled tracer was added in binding reactions at a final concentration of 100 pM in binding buffer containing DMEM plus 50 mM HEPES and 1% bovine serum albumin. Unlabeled relaxin-3 and relaxin-3 chimeric polypeptides were added at various concentrations to the binding assays as the competitors, as indicated (FIG. 3). The binding mixtures were incubated at room temperature for 1 hour. The unbound radioligand was removed by aspiration of the binding buffer. The cells were washed with PBS. The bound radioligand was counted in a scintillation counter (TopCount/NTX). The results were analyzed using Prism 3.0 program (Graphpad, San Diego, Calif.). The IC50 values represent the ligand concentrations that inhibit 50% of the maximum specific binding.

GPCR142 = biological target: T4, GPCR142 (Homo sapiens, UniProt Q8TDU9, L329S); test: Inhibition of forskolin stimulated β-galactosidase expression in SK-N-MC/β-gal cells; type: cell-based; conditions: for EC50 to activate GPCR142: inhibition of 5 μM forskolin stimulated β-galactosidase expression, mean ± SEM, n = 3
T4 construct: expressed in transfected cells
Description: as §8

GPCR135 [3] = biological target: T1, GPCR135; test: Binding of radioligands to COS-7 cells transfected with GPCR135; conditions: radioligand 100 pM
Description: (§7) FIGS. 5A-5D illustrate a comparative analysis of the binding specificities of [^125I]-relaxin-3 and [^125I]-R3/I5 for GPCR135 and LGR7. COS-7 cells in 6-well culture dishes were transfected with human GPCR135 and LGR7, respectively. Mock transfected COS-7 cells were used as the negative controls. [^125I]-relaxin-3 (FIG. 5A) or [^125I]-R3/I5 (FIG. 5B) was added to cells at a final concentration of 100 pM either in the absence or presence of 1 uM of unlabeled relaxin-3 to determine total binding and non-specific binding, respectively. FIG. 5C depicts an autoradiogram of [^125]-relaxin-3 binding in rat brain sagittal section. FIG. 5D depicts an autoradiogram of non-specific binding of [^125]-relaxin-3 as determined in the presence of 100 nM of unlabeled relaxin-3. FIG. 5E depicts an autoradiogram of [^125]-R3/I5 binding in rat brain sagittal section. […] binding of [^125]-R3/I5 as determined in the presence of 100 nM of unlabeled relaxin-3.

LGR7 [4] = biological target: T2, LGR7; test: Binding of radioligands to COS-7 cells transfected with LGR7; conditions: radioligand 100 pM
Description: as §7

LGR7 [5] = biological target: T2, LGR7; test: Stimulation of β-galactosidase expression in SK-N-MC/β-gal cells; type: cell-based; conditions: ligand stimulated β-galactosidase expression; mean ± SEM, n = 3; read-out: EC50 to activate LGR7
Description: as §1, §2, §3, §4, §5, §6

T4 sequence (Q8TDU9 whole entry L329S): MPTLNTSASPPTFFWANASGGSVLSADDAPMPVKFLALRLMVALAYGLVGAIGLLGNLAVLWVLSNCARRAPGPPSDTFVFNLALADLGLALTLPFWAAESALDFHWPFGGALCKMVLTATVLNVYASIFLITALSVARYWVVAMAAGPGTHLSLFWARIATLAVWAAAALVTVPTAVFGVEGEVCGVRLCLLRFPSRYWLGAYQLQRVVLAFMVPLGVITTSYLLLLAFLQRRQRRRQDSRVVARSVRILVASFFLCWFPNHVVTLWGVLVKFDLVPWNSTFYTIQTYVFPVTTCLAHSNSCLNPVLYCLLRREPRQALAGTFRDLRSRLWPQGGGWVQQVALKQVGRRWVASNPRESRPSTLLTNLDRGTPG
T3 sequence (Q8WXD0 whole entry): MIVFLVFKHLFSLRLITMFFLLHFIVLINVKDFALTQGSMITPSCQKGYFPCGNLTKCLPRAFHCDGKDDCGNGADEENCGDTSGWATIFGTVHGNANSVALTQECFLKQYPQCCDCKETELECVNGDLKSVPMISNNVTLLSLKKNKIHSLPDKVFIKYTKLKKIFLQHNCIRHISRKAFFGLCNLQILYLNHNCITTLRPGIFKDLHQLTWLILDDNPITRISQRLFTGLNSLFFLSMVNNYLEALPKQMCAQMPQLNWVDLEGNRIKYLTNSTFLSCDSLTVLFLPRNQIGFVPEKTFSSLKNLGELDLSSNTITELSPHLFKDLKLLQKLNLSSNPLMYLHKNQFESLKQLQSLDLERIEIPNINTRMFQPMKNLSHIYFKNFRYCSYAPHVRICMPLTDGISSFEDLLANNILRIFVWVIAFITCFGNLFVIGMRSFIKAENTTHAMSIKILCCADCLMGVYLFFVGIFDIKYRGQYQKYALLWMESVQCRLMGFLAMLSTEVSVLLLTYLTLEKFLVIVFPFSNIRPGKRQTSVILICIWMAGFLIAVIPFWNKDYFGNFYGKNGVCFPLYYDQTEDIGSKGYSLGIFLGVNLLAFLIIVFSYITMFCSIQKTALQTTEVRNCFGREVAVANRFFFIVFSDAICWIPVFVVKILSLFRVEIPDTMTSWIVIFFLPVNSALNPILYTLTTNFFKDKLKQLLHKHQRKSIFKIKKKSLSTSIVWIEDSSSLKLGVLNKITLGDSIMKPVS

Row | Molecule | EC50 to activate GPCR135 (GPCR135 [1]) | IC50 for binding LGR7 (LGR7 [2]) | EC50 to activate GPCR142 (GPCR142) | also measured
1 | R3/R1: chimeric polypeptide: human relaxin-3 B-chain and relaxin-1 A-chain; mature polypeptide SEQ ID NO:19 (RAAPYGVRLCGREFIRAVIFTCGGSRWPYVALFEKCCLIGCTKRSLAKYC; Human Relaxin-3/Relaxin-1 chimeric mature polypeptide) | low nanomolar range | low nanomolar range | low nanomolar range | activation of LGR8, in words (LGR8; highest concentration tested 1 μM): marginal activity at the highest concentration tested (1 μM)
2 | R3/R2: chimeric polypeptide: human relaxin-3 B-chain and relaxin-2 A-chain; mature polypeptide SEQ ID NO:20 (RAAPYGVRLCGREFIRAVIFTCGGSRWQLYSALANKCCHVGCTKRSLARFC; Human Relaxin-3/Relaixin-2 chimeric mature polypeptide) | low nanomolar range | low nanomolar range | low nanomolar range | –
3 | R3/I3: chimeric polypeptide: human relaxin-3 B-chain and INSL3 A-chain; mature polypeptide SEQ ID NO:21 (RAAPYGVRLCGREFIRAVIFTCGGSRWNPARYCCLSGCTQQDLLTLC; Human Relaxin-3/Insulin-like 3 chimeric mature polypeptide) | low nanomolar range | low nanomolar range | low nanomolar range | –
4 | CC[C@H](C)[C@H](NC(=O)[C@H](Cc1ccccc1)NC(=O)[C@H](CCC(=O)O)NC(=O)[C@H](CCCNC(=N)N)NC(=O)CNC(=O)[C@H](CS)NC(=O)[C@H](CC(C)C)NC(=O)[C@H](CCCNC(=N)N)NC(=O)[C@@H](NC(=O)CNC(=O)[C@H](Cc1ccc(O)cc1)NC(=O)[C@@H]1CCCN1C(=O)[C@H](C)NC(=O)[C@H](C)NC(=O)[C@@H](N)CCCNC(=N)N)C(C)C)C(=O)N[C@@H](CCCNC(=N)N)C(=O)N[C@@H](C)C(=O)N[C@H](C(=O)N[C@H](C(=O)N[C@@H](Cc1ccccc1)C(=O)N[C@H](C(=O)N[C@@H](CS)C(=O)NCC(=O)NCC(=O)N[C@@H](CO)C(=O)N[C@@H](CCCNC(=N)N)C(=O)N[C@@H](Cc1c[nH]c2ccccc12)C(=O)O)[C@@H](C)O)[C@@H](C)CC)C(C)C [relaxin-3 B-chain, reference compound] | – | – | – | EC50 (GPCR135 [1]; read-out: EC50 to activate GPCR135): 88 nM; EC50 (GPCR142; read-out: EC50 to activate GPCR142): 125 nM
5 | [^125I]-relaxin-3: radioiodinated human relaxin-3 used as tracer (RAAPYGVRLCGREFIRAVIFTCGGSRWDVLAGLSSSCCKWGCSKSEISSLC; ends and bridges not checked; also: radioiodinated ([125I]), site not given here) [reference compound] | – | – | – | binding to GPCR135 expressing cells, in words (GPCR135 [3]): high affinity; binding to LGR7, in words (LGR7 [4]): did
6 | B1 | – | – | – | EC50 (LGR7 [5]): 0.25 nM; EC50 (LGR8; ligand stimulated β-galactosidase expression, mean ± SEM, n = 3, read-out: EC50 to activate LGR8): 1.5 nM
